Experiments:
[1] = biological target: Staphylococcus aureus single-stranded DNA-binding protein SsbA (S. aureus subsp. aureus ED98); assay: SEC; purified SaSsbA (2 mg/mL) on Superdex 200 prep grade in Buffer B (20 mM HEPES, 100 mM NaCl, pH 7.0), calibrated with proteins of known molecular weight
[2] = biological target: Staphylococcus aureus PriA helicase (S. aureus); assay: SPR; SaPriA immobilised on CM5 chip, Biacore T200, 293 K, 40 mM Tris, 200 mM NaCl, 0.05% Tween-20, pH 8.0; analyte injected 120 s at 30 uL/min; 1:1 (Langmuir) model
[3] = biological target: SaSsbA (Staphylococcus aureus subsp. aureus ED98, UniProt A0A0D1JHQ1 1-167); assay: EMSA; 100 mM NaCl; EMSA: 20 mM Tris-HCl pH 8.0, 100 mM NaCl (or 0.4 M NaCl), 1.7 nM DNA, 25 C, 30 min; native 8% PAGE in TBE at 4 C; settings: protein: recombinant; chain copies: 4; label: 32P (5' end, T4 PNK); single strand

Row | Molecule | stoichiometry N [1] | Kd [2] [nM] | apparent K (half saturation) [3] [nM]
1 | Staphylococcus aureus single-stranded DNA-binding protein SsbA (natural protein) | 4 | 46 | –
2 | TTTTTTTTTTTTTTTTTTTT (ssDNA) [dT20] | – | – | 292 ± 28
3 | TTTTTTTTTTTTTTTTTTTTTTTTTTTTTT (ssDNA) [dT30] | – | – | 186 ± 20
4 | TTTTTTTTTTTTTTTTTTTTTTTTTTTTTTTTTTTTTTTT (ssDNA) [dT40] | – | – | 90 ± 5
